The test system of series [1] is KB cells. In words: In vitro transfection (luciferase expression). The class given is cell-based. The conditions noted are these: 1 μg DNA/well. The method, then: The following day, the media was removed and replaced with 500 μl of fresh serum-free media.
A short description of series [2]: Particle sizing (mean diameter, polydispersity; Coulter N4Plus, unimodal mode). The class given is physicochemical. The conditions noted are these: condensed DNA 2:1 μg:μg, DNA 0.143 mg/ml, second experiment (Table 18). The method, then:
The liposomes were prepared as follows: 6000 nmol of 1,2-dioleoyl-3-trimethylammonium-propane (DOTAP) (Avanti Polar Lipid Inc., Alabaster, Ala.) at 20 mg/ml in chloroform and 6000 nmol of cholesterol (Avanti Polar Lipid Inc., Alabaster, Ala.), also prepared at 20 mg/ml in chloroform (J. T. Baker, Phillipsburg N.J.), were mixed in a borosilicate tube and dried for 1 hr under nitrogen at 4 liters per minute (LPM) using a N-EVAP™ (Organomation, Berlin, Mass.). The resulting lipid films were hydrated in 2 ml of 5% USP dextrose (Abbott Laboratories, North Chicago, Ill.) to achieve a final lipid concentration of 6 mM. […]
LPDs were prepared as described by Li, S., et al., Gene Therapy, 1998. […] The surface zeta potential was determined using a Malvern zeta sizer (Malvern Instrument Inc, Sacramento, Calif.).
DLPDs were generated by a modified version of the method previously described by Harvie, P., F. M. Wong, and M. B. Bally, Biophys J, 1998. […] Particle sizes were assessed as described above and typically were in the 150-300 nm range.
Typically, 0.15 ml of mixed micelles prepared as describe above were mixed with 350 μl of DNA pre-compacted with protamine at a 2:1 protamine:DNA ratio under mild vortex agitation (speed 3). […] The surface zeta-potential was determined using a Malvern zeta sizer (Malvern Instrument Inc, Sacramento, Calif.). […]

Series [3] can be described thus: Surface zeta potential (Malvern zeta sizer). The class given is physicochemical. The conditions noted are these: 10 mol % in LPD, 5% dextrose USP pH 5.0. The method, then:
LPDs were prepared as described by Li, S., et al., Gene Therapy, 1998. 5(7): p. 930-937. Lipid:protamine:DNA ratios of 12 nmol:0.9 μg:1 μg, 12 nmol:0.97 μg:1 μg, and 12 nmol:1 μg:1 μg were used for these experiments, as indicated. As a typical example, 150 μl of liposomes at 6mM were mixed with 197 μl of 5% dextrose USP followed by the addition of 153 μl of pre-compacted DNA at 490 μg/ml. This operation was performed under moderate vortex agitation (speed #3), and the resulting LPD solution contained 150 μg DNA/ml. […] The surface zeta potential was determined using a Malvern zeta sizer (Malvern Instrument Inc, Sacramento, Calif.).
Typically, 0.15 ml of mixed micelles prepared as describe above were mixed with 350 μl of DNA pre-compacted with protamine at a 2:1 protamine:DNA ratio under mild vortex agitation (speed 3). Particles formed spontaneously, i.e. solution became cloudy. […] Particle sizes were assessed as described above and typically were in the 100-200 nm range as determined using a N4Plus coulter (Beckman Coulter, Miami, Fla.) sizer in unimodal mode. The surface zeta-potential was determined using a Malvern zeta sizer (Malvern Instrument Inc, Sacramento, Calif.). […]
PPAA polymer was supplied by Dr. Allan Hoffman's laboratory (University of Washington, Seattle, Wash.). […] The surface zeta potential was determined using a Malvern zeta sizer (Malvern Instrument Inc, Sacramento, Calif). […]

Here are results for two substances from patent US20050025821A1, “Lipid-comprising drug delivery complexes and methods for their production” (priority 2001, published 2005).

Starred links: 1 amine or outer side, 2 acyl side, 3 side chain; linkers in the order of their positions; H or OH if unused. Suc = O=C(CCC(=O)[*:2])[*:1]

Regarding KHKHKHKHKGKHKHKHKHK, in series [1], the “increase in transfection activity when formulated with CHEMS:DOPE compared to peptide-compacted DNA alone” value is “No change in the transfection activity”. The “size (nm)” value in series [2] worked out at 25 nm.
Turning to “DSPE-PEG5K-succinyl-ACDCRGDCFCG-COOH ({DSPE-PEG5K-Suc}-ACDCRGDCFCG-OH; cysteine pairing not given here) [DSPE-PEG5K-RGD, targeting factor-pegylated lipid conjugate]”, the “decrease in the zeta-potential versus conventional LPD” value in series [3] stood at 15 mV.
